The experiment addresses T1, C末端FLAGタグを有する切り捨てられたヒトRNF43 (Ba/F3 E12細胞に発現) (human, UniProt Q68DV7 24-237).
T1 construct: also called E12細胞株; Ba/F3 E12トランスフェクタント
T1 sequence: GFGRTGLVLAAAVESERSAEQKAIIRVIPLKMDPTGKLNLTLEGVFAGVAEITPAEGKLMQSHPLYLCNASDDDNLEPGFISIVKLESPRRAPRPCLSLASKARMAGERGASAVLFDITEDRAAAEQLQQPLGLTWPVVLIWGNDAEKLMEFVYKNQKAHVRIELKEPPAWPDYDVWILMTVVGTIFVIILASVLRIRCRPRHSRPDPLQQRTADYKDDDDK
The experiment in a line: flow cytometry on Ba/F3 E12 cells, antibody at 2.5 microg/ml, PE anti-human IgG detection. A general note: A flow cytometer gives signals particle by particle.

B1: 抗RNF43単一特異性抗体RNN0802 (antibody, human IgG1, kappa, N297A, V domains shown)
VH: QSLEESGGRLVTPGGSLTLTCRVSGFSLSNYDMSWVRQAPGKGLEWIGFITSSGRTYYASWAKGRFTISKTSTMVDLKITSPTTEDTATYFCARDFENDDSAMWGPGTLVTVSS
VL: DVVMTQTPSSVSAAVGGTVTINCQASQSVYDNNLAWYQQKPGQPPKLLIYKASKLASGVPSRFKGSGSGTEFTLTISDLECADAATYYCQSNYYSNTNGLGSFGGGTKVEIKR
notes: also called 単一特異的RNN0802; 単一特異的RNN0802(二価IgG)
Take B1: the binding result is recorded as “binds”.

The values above are taken from patent JP2020075879A (dated 2020).
